Reference: patent publication US20260258115A1 (MAPP BIOPHARMACEUTICAL, published 2026)

How the values were obtained:
[1] = target: RSV prefusion F (preF), DS-Cav1 (respiratory syncytial virus, UniProt P03420 26-513); test: BLI, IgG on sensor, 100 nM antigen
[2] = target: RSV postfusion F (postF), F deltaFP (respiratory syncytial virus, UniProt P03420 26-513); test: BLI, IgG on sensor, 100 nM antigen
[3] = target: RSV fusion glycoprotein (RSV F) on RSV-A2 virus (respiratory syncytial virus, UniProt P03420 26-574); test: cell-based or functional assay

| Binder | Kd [1] [nM] | Kd [2] [nM] | Neutralization IC50 (RSV subtype A) [3] [µg/mL] |
| --- | --- | --- | --- |
| ADI-41393 (antibody, V domains shown, IgG1; also called Ab 687) VH: QVQLVQSGAEVKKPGESLKISCKGSGYSFTSYWIGWVRQMPGKGLEWMGIIYPGDSDTRYSPSFQGQVTISADKSTSTAYLQWSSLKASDSAMYYCARSEFSSSFDFWGQGTLVTVSS VL: NFMLTQPHSVSESPGKTVTISCTGSSGSIASYYVQWYQLRPGSAPTTVIYEDNQRLSGVPDRFSGSIDSSSNSASLTISGLKTEDEADYYCQSYRSGIPWVFGGGTKLTVL | 1.67 | 0.247 | > 25 |
| ADI-41407 (antibody, V domains shown, IgG1) VH: EVQLVESGGGLVQPGGSLRLSCAASGFTFSSNAMSWVRQAPGKGLEWVSYISGGSATKSYADSVKGRFTISRDNSKNTLYLQMKSLRAEDTAVYYCVGGSAYYSGFDYWGQGTLVTVSS VL: DIVMTQSPSSLSASVGDRVTISCRASQDIRNYLAWYQQKPGKVPNLLIYAASTLESGVPSRFSGSGYGTDFTLTISGLQPEDVATYYCQKYDSAPPFTFGPGTKVDIK | 2.08 | 0.371 | > 25 |
| ADI-41432 (antibody, V domains shown, IgG1) VH: QVQLVQSGAEVKKPGYSVKVSCKASGGTFSTFGISWVRQAPGLGLEWMGGIIPLFGTADYSKKYQGRVTITADESTSTGYMELNSLTPEDTAVYYCARSPGHLWSRYDAFEVWGQGTTVTVSS VL: QPVLTQPRSVSGSPGQSVTISCSGTSSDVGGYNYVSWYQQYPGKAPKLIIYDVNKRPSGVPDRFSGSKSDNTASLTISGLQADDESDYFCCSYAGSHTFEVFGTGTKVTVL | 2.05 | 0.286 | > 25 |
| ADI-41404 (antibody, V domains shown, IgG1; also called Ab 696) VH: QVQLVQSGAEVKKPGSSVKVSCKASGGTFSSYGISWVRQAPGQGLEWMGGIIPIFGTVSYAQKFRGRLTITAHEPTSTAYMDLSSLRSEDTAVYYCARINGRGWELSSLNYYYGMDVWGQGTTVTVSS VL: EIVLTQSPGTLSLSPGERGTLSCRASQSVASSYLAWYQQKPGQAPRLLIYGATSRATGIPDRFSGSGSGTDFTLTISRLEPEDFAVYYCQQYGSSLFTFGGGTKVDIK | 47.4 | 13.6 | > 25 |
| ADI-41429 (antibody, V domains shown, IgG1; also called Ab 714) VH: QVQLVQSGAEVKKPGSSVKVSCKASGGTFSSYAISWVRQAPGQGLEWMGGIIPIFGTVNYAQKFPGRVTITADESTSTAYMELSSLRSEDTAIYYCARDSPSYTGSLLFSQYYYGMDVWGQGTTVTVSS VL: QPVLTQPASVSGSPGQSITISCTGTSSDVGGYDYVSWYQHHPGKAPKLMIYEVSNRPSGVSNRFSGSKSGNTASLTISGLQAEDEADYYCSSFTTSSPRVFGTGTKLTVL | 3.62 | 1 | > 25 |
| ADI-41444 (antibody, V domains shown, IgG1) VH: EVQLVESGPRLVKPSQTLSLTCTVSGGSIGTGDYHWTWIRQSPGKGLEWIGNIYYNGRTFYNPSLKGRGSISRDASKNQFSLNLSSVSAADTAVYYCARDRAAKGFDHWGQGTLVTVSS VL: DIQLTQSPSTLSASVGDRVTITCRASQNINGWLAWYQQKPGRVPKLLIYKASTLESGVPSRFSGSASGTEFTLTINNLLPDDFATYYCQQYNDYPYTFGQGTKVEIK | 3.01 | 0.541 | > 25 |
| ADI-41415 (antibody, V domains shown, IgG1) VH: QVTLKESGPALVKPTQTLTLTCTFSGFSLSTSRTRVSWIRQPPGKALEWLARVDWDDDKFYNPVLKTRLSISKDPSKNQVVLTMTNVDPVDTATYYCVRMAHYGSGGYYVEYFQDWGQGTLVTVSS VL: DIQLTQSPASLSASAGDRVTITCRASQNINRYLNWYQQQSGKAPKLLIYAASILQSGVPSRFSGSGSGTDFTLTITSLQPEDFAIYYCQQSYTTPKYTFGQGTKVEIK | 1.08 | 0.644 | > 25 |
| ADI-41436 (antibody, V domains shown, IgG1; also called Ab 720) VH: EVQLLESGGGVVQPGRSLRLSCAASGFTFSDYAMHWVRQAPGKGLEWVALISFDGSNEYYADSVKGRFTISRDNSRNTVYLQVNTLRPDDTAVFYCARDSHLRLTTRGWGSFDYWGQGTLVTVSS VL: NFMLTQPHSVSESPGKTVTIACTRSSGSIARNYVQWYQQRPGRSPTMVIYEDNQRPSGVPDRFSGSIDTSSNSASLTISGLKTEDEADYYCQPYDPDNLVFGGGTKLTVL | 1.1 | 0.237 | > 25 |
| ADI-41405 (antibody, V domains shown, IgG1) VH: EVQLLESGGGLVQPGGSLRLSCAASGFSFSIYSMNWVRQAPGKGLEWISYITSTGSPTYYADSVKGRFTISRDNAKNSLYLQMSSLRAEDTAVYYCVTYCSSSSCPAEFDYWGQGTLVTVSS VL: EIVLTQSPATLSLSPGERATLSCRASQSVNSYLAWYQQKPGQAPRLLIYDASNRATGIPARFSGSGSGTDFTLTISSLEAEDFAVYYCQHRNNWPALTFGGGTKVEIK | 2.72 | 0.458 | > 25 |
| ADI-41431 (antibody, V domains shown, IgG1; also called Ab 715) VH: QVQLVQSGAEVKKPGASVRVSCTASGYRFFTYGITWVRQAPGQGLEWMGWISAYNGNTKFAQKFQGRLTMTTDAPTSTADMELRGLRSDDTAVYYCAREEGGYHGTGSNNYWGQGTLVTVSS VL: QSVLTQPPSVSAAPGQKVTISCSGSGSNVGGNDVSWYQQFPGTAPKLLIYDNSKRPSGIPDRFSGSKSGTSATLVITGLQTGDEADYYCGTWDSSLSVGVFGTGTKLTVL | 0.744 | 0.345 | 2.38 |
| ADI-41443 (antibody, V domains shown, IgG1; also called Ab 727) VH: EVQLVESGGGVVQPGKSLRLSCAASGFTFSSYAMHWVRQAPGKGLEWVSVIWYEDSDKYYGDSVKGRFTISRDNSKNTLYLQMNSLRAEDTAVYYCARKSGGFGGLDYWGQGTLVTVSS VL: DIVMTQSPLSLPVTPGEPASISCKSSQSLLTANGYNYLDWYVQKPGQSPHVLISLGSNRASGVPDRFSGSGSGTDFTLKISRVEAEDVGVYYCMQAIETPITFGQGTRLEIK | 2.4 | 0.373 | > 25 |
| ADI-41445 (antibody, V domains shown, IgG1) VH: QVQLVQSGAEVKRPGSSVKVSCKAFGGSFSNYAINWVRQAPGQGLEWMGGISPVLGTAIYAKRFQGKVTITADKFANTAYMDLSSLRFEDTAVYYCARSPPHVEFPLTKWFDPWGQGTLVTVSS VL: EIVMTQSPGTLSLSPGERATLSCRASQSVNSGYLAWYQHKPGRAPRLLIYGASNRATGVPDRFSGSGSGTDFTLTISRLEPEDFAVYYCQQYDNSLFTFGPGTKVDIK | 3.04 | 0.772 | > 25 |
| ADI-41414 (antibody, V domains shown, IgG1) VH: EVQLLESGGGLAQPGRSLKVSCAASGVTVTSTYMGWVRQAPGKGLQWVSVIYSDGTTYYADSVKGRFTISRDHYKNTLYLQMNSLRAEDTALYYCARGNRRTDFGYWGQGTLVTVSS VL: EIVMTQSPSTLSASVGDRVTITCRASQTISNWLAWYQQKPGKAPKLLIYQASTLESGVPSRFSGSGSGTEFTLTISSLQPDDFATYYCQQYNTYYTFGPGTKVEIK | 2.7 | 1.1 | > 25 |
| ADI-41425 (antibody, V domains shown, IgG1) VH: EVQLLESGPAVVKPTQTLTLTCTVSGLSLSSPRMSVSWIRQPPGKGLEWLARIDWDGDKYYGTSLKTRLSISKDTSKNQVVLTMTNMDPVDTGTYYCAQTSIYASNAYYLARLDPWGQGMLVTVSS VL: EIVMTQSPSLLSASVGDRVTITCRASQNIATYLNWYQQKPGKAPRLLIYAASNLQSGVPSGFSGSGSGTVFTLTISSLQPEDFATYFCQQSYETSLTFGGGTKVEIK | 1.14 | 0.496 | > 25 |
| ADI-41440 (antibody, V domains shown, IgG1; also called Ab 724) VH: EVQLVESGGGLVKPGGSLRLSCAVSGFTFSDYTMNWVRQAPGKGLEWVSSISGSGTYIYYGDSVKGQFTISRDNAKNSLYLQMNSLRAEDTAVYYCARELPAKTIFGVDFLGGTTAYDCWGQGTPVTVSS VL: EIVLTQSPATLSVSPGERATLSCRASQSVSSNLAWYQQKPGQAPRLLIYSATTRATGVPARFSGSGSGTEFTLTISSLRSEDFAVYYCQQYNNGGTFGPGTKVEIK | 3.18 | 1.23 | > 25 |
| ADI-41403 (antibody, V domains shown, IgG1) VH: EVQLVESGGGLVKPGGSLRLSCAASGFTFGTYTMNWVRQAPGKGLEWVSSISSSSSHIYYADSVKGRFTISRDNARKALYLQMNSLRPEDTAVYFCARFLGDYGGDGNTYYYYYGMDVWGQGTTVTVSS VL: EIVMTQSPLSLPVTPGEPASISCRSSQSLLHSNGKNYLDWYLQKPGQSPQLLIHLGSNRASGVPDRFSGSGSGTDFTLQISRVEAEDVGVYYCMQALQTPTFGGGTKLEIK | 3.04 | 0.841 | > 25 |
| ADI-41418 (antibody, V domains shown, IgG1) VH: EVQLVESGGGLVKPGGSLRLSCAASGLSFTDAWMGWVRQAPGKGLEWVGHIKKKTDYGPTAYAAPVRGRFTVSRDDSKNTLYLQMTSLKTEDTAVYYCITERGYNFGYNDYFGVDVWGQGTLVTVSS VL: QPGLTQPPSVSVSPGQTARITCSGDALPKKYAYWYQQKSGQAPVMIIYEDNKRPSGIPERFSGSTSGTMATLTISGAQMEDEADYYCFSTDSGDDQSGVFGGGTRLTVL | 1.58 | 0.341 | > 25 |
| ADI-41427 (antibody, V domains shown, IgG1) VH: QVQLVESGPGLVKPSETLSLTCTVSGGSIGGYYWSWIRQPPGKGLEWIGYMYYSGSTNYNPSLKSRVTMSVDTSKNQFSLKLTSVTAADTAVYYCARVLRFLVGGMDVWGQGTTVTVSS VL: QSVLIQPASVSGSPGQSITISCTGTSSDVGGYNYVSWYQQHPGKAPKLIIYEVSNRPSGVSNRFSGSKSGNTASLTISGLQAEDEADYYCNSYTTIATLVFGTGTKVTVL | 2.7 | 0.917 | > 25 |
| ADI-41446 (antibody, V domains shown, IgG1; also called Ab 730) VH: EVQLLESGGGLVQPGGSLRLSCAASGFTYYSYAMNWVRQAPGKGLEWVSAISGGGDNTFYAESVKGRFTISRDNAKNTLYLQMDSLRAEDTAVYYCAKDLQGYTSLYCFDYWGQGTLVTVSS VL: EIVMTQSPATLSLSPGERAALSCRASQSVFNYVAWYQQKPGQAPRLLIYDTSKRATGIPARFSGSGSGTDFTLTISSLEPEDFAVYYCQHRYNWPGLIFGGGTKVEIK | 3.6 | 0.722 | > 25 |
